Results taken from patent US12072338B2, “Pharmaceutical peptides for the treatment of inflammatory diseases” (PROTAGONISTS LTD., priority 2007, dated 2024).

How the values were obtained:
[1] = molecular target: T1, Mig (Homo sapiens, UniProt Q07325); test: Micro-array analysis of chemokine binding peptides: Mig
T1 construct: purchased 300-26
T1 sequence (Q07325 23-125): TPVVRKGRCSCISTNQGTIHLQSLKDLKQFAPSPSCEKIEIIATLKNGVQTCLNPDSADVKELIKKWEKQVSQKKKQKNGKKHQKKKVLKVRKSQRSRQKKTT
Description: (§1) (1) Printing: Chemokine (CK) solution (in water) was serially diluted with Print Reagent (GenTel BioSurfaces USA) to final concentrations of 50 μg and 25 μg/ml. BSA/BSA-Biotin control solutions (in water) were diluted with Print Reagent to 100 μg/ml. Amplified stock of M13 phage control (M13KEgIII Cloning Vector, New England Biolabs, Cat.No.E8101S) was stored in Tris Buffered Saline (TBS; pH7.5, 4° C.) and diluted with Print Reagent to the working titre (10^8 pfu/μl). An automated spotting robot (16 pin print tool, 0.4 mm head; BioRobotics, UK) was used to print the CK/BSA control/M13 control, 5 repeats per sample (CK 25 μg/ml and 50 μg/ml; BSA 100 μg/ml; M13 20 μl), on PATH Protein Microarray Slides (GenTel, Prod.No. 2-1005/-1025) at […], and 50-70% relative humidity. Printed micro-array slides were stored at Room Temperature (RT) or 4° C. for at least 24 h before use.
(§2) (2) Blocking: Block Buffer (500 μl/partition; PATHblock, GenTel, Prod.No. 2-1014) was applied to the slide for 1 hour at room temp (RT). After removal of Block Buffer, the slide was air dried for 25 minutes;
(§3) (3) Phage Presented Peptide Binding: Amplified recombinant phage stock was stored in TBS and diluted with Wash Buffer to working titer (10^7 pfu/μl). Recombinant phage suspension (300 μl) was applied per partition and incubated at RT for 1 hour with gentle agitation.
(§4) (4) First Washing: The slides were washed twice with Wash Buffer 300 μl/partition).
(§5) (5) Primary Antibody (Ab) Labeling: The slides were incubated with the Primary Ab (1 mg/ml diluted ×2500 (Wash Reagent), 300 μl; Mouse Anti-M13 monoclonal Ab; Amersham Biosciences, UK; Product Code 27-9420-01) for 45 minutes at RT.
(§6) (6) Second Washing: The slides were washed twice with Wash Buffer (300 μl/partition).
(§7) (7) Secondary Ab Labeling: The slides were incubated with Secondary Ab (1.5 mg/ml diluted ×5000 (Wash Reagent), 300 μl; Cy3-conjugated AffiniPure Goat Anti-Mouse IgG; Jackson ImmunoReserch Labs, USA; Product Code 115-165-062).
(§8) (8) Third Washing: The slides were washed twice with Wash Buffer (300 μl/partition).
(§9) (9) Rinse: the slides were rinsed twice with Rinse Buffer (PATHrinse, GenTel, Prod.No. 2-1018) then dried well.
(§10) (10) Scanning: The peptide-bound, labeled slide was scanned (Laser Intensity 80%, Gain 80%, Resolution 10 μm) with a ScanArray Life Scanner (Packard BioChip Technologies, USA).
(§11) (11) Analysis: Quantitative analysis of micro-array was performed by the SpotReader program of Niles Scientific (USA) and presented as Relative Fluorescence (RF) as a function of CK concentration. Micro-array readout (Cy3 fluorescence) was quantified to determine the relative binding affinities of a CBP for the CKs and by inference, the specificity of the CBP for binding to a CK.

[2] = molecular target: T2, IP-10 (Homo sapiens, UniProt P02778); test: Micro-array analysis of chemokine binding peptides: IP-10
T2 construct: purchased 300-12
T2 sequence (P02778 22-98): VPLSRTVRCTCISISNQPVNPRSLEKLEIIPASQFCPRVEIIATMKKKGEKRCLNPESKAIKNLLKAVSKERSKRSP
Description: as §1, §2, §3, §4, §5, §6, §7, §8, §9, §10, §11

[3] = molecular target: T3, I-TAC (Homo sapiens, UniProt O14625); test: Micro-array analysis of chemokine binding peptides: I-TAC
T3 construct: purchased 300-46
T3 sequence (O14625 22-94): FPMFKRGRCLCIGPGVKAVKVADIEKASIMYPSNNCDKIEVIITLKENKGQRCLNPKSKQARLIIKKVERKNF
Description: as §1, §2, §3, §4, §5, §6, §7, §8, §9, §10, §11

[4] = molecular target: T4, I-309 (Homo sapiens, UniProt P22362); test: Micro-array analysis of chemokine binding peptides: I-309
T4 construct: purchased 300-37
T4 sequence (P22362 24-96): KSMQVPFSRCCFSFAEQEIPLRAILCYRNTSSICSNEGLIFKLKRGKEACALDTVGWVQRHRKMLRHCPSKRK
Description: as §1, §2, §3, §4, §5, §6, §7, §8, §9, §10, §11

[5] = molecular target: T5, MCP-1 (Homo sapiens, UniProt P13500); test: Micro-array analysis of chemokine binding peptides: MCP-1; details: for binding to MCP-1 with relatively high affinity (Relative Fluorescence Units): limit = start of the upper 75% of that peptide's response range
T5 construct: purchased 300-04
T5 sequence (P13500 24-99): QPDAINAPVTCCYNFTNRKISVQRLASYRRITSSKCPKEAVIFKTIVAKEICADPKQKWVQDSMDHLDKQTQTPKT
Description: as §1, §2, §3, §4, §5, §6, §7, §8, §9, §10, §11

[6] = molecular target: T6, MCP-2 (Homo sapiens, UniProt P80075); test: Micro-array analysis of chemokine binding peptides: MCP-2; details: limit = start of the upper 75% of that peptide's response range
T6 construct: purchased 300-15
T6 sequence (P80075 24-99): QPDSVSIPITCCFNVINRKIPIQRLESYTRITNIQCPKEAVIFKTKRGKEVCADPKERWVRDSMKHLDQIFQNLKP
Description: as §1, §2, §3, §4, §5, §6, §7, §8, §9, §10, §11

[7] = molecular target: T7, MCP-4 (Homo sapiens, UniProt Q99616); test: Micro-array analysis of chemokine binding peptides: MCP-4; details: for binding to MCP-4 with relatively high affinity (Relative Fluorescence Units): limit = start of the upper 75% of that peptide's response range
T7 construct: purchased 300-24
T7 sequence (Q99616 17-98): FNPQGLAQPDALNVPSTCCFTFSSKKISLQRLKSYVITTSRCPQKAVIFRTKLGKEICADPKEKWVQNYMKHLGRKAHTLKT
Description: as §1, §2, §3, §4, §5, §6, §7, §8, §9, §10, §11

[8] = molecular target: T8, Eotaxin (Homo sapiens, UniProt P51671); test: Micro-array analysis of chemokine binding peptides: Eotaxin
T8 construct: purchased 300-21
T8 sequence (P51671 24-97): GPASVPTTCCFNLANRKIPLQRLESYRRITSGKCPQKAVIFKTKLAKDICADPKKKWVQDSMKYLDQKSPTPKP
Description: as §1, §2, §3, §4, §5, §6, §7, §8, §9, §10, §11

[9] = molecular target: T9, Eotaxin 2 (Homo sapiens, UniProt O00175); test: Micro-array analysis of chemokine binding peptides: Eotaxin 2
T9 construct: purchased 300-33
T9 sequence (O00175 27-119): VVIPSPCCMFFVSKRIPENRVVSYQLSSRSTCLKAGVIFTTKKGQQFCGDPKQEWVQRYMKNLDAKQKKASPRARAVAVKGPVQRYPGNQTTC
Description: as §1, §2, §3, §4, §5, §6, §7, §8, §9, §10, §11

[10] = molecular target: T10, Eotaxin 3 (Homo sapiens, UniProt Q9Y258); test: Micro-array analysis of chemokine binding peptides: Eotaxin 3
T10 construct: purchased 300-48
T10 sequence (Q9Y258 24-94): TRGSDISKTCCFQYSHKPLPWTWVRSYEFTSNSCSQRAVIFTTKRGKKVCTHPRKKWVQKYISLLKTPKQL
Description: as §1, §2, §3, §4, §5, §6, §7, §8, §9, §10, §11

[11] = molecular target: T11, SDF1-α (Homo sapiens, UniProt P48061); test: Micro-array analysis of chemokine binding peptides: SDF1-α
T11 construct: purchased 300-28a
T11 sequence (P48061 22-89 limits assumed): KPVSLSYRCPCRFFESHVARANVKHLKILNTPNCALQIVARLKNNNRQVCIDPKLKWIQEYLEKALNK
Description: as §1, §2, §3, §4, §5, §6, §7, §8, §9, §10, §11

[12] = molecular target: T12, SDF1-β (Homo sapiens, UniProt P48061); test: Micro-array analysis of chemokine binding peptides: SDF1-β
T12 construct: purchased 300-28b
T12 sequence (P48061 22-93): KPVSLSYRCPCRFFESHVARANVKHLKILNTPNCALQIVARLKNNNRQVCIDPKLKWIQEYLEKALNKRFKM
Description: as §1, §2, §3, §4, §5, §6, §7, §8, §9, §10, §11

[13] = molecular target: T13, BCA-1 (Homo sapiens, UniProt O43927); test: Micro-array analysis of chemokine binding peptides: BCA-1
T13 construct: purchased 300-47
T13 sequence (O43927 23-109): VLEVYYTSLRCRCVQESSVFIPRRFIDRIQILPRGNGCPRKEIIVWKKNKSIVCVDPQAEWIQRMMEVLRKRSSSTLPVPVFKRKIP
Description: as §1, §2, §3, §4, §5, §6, §7, §8, §9, §10, §11

[14] = molecular target: T14, TECK (Homo sapiens, UniProt O15444); test: Micro-array analysis of chemokine binding peptides: TECK
T14 construct: purchased 300-45
T14 sequence (O15444 24-150): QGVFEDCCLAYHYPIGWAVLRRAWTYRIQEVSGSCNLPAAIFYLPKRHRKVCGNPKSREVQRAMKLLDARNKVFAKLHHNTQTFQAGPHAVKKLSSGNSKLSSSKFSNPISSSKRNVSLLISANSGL
Description: as §1, §2, §3, §4, §5, §6, §7, §8, §9, §10, §11

[15] = molecular target: T15, Lymphotactin (Homo sapiens, UniProt P47992); test: Micro-array analysis of chemokine binding peptides: Lymphotactin
T15 construct: purchased 300-20
T15 sequence (P47992 22-114): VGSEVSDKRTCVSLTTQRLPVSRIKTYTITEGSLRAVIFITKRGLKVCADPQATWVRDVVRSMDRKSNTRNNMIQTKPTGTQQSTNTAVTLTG
Description: as §1, §2, §3, §4, §5, §6, §7, §8, §9, §10, §11

[16] = molecular target: T16, Exodus-2 (Homo sapiens, UniProt O00585); test: Micro-array analysis of chemokine binding peptides: Exodus-2
T16 construct: purchased 300-35
T16 sequence (O00585 24-134): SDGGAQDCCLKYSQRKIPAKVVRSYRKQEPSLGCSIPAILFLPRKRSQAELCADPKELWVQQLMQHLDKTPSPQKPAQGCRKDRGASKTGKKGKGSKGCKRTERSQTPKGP
Description: as §1, §2, §3, §4, §5, §6, §7, §8, §9, §10, §11

[17] = molecular target: T17, GRO-β (Homo sapiens, UniProt P19875); test: Micro-array analysis of chemokine binding peptides: GRO-β
T17 construct: purchased 300-39
T17 sequence (P19875 35-107): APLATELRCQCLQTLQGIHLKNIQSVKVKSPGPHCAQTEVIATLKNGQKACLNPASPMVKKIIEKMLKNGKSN
Description: as §1, §2, §3, §4, §5, §6, §7, §8, §9, §10, §11

[18] = test system: IL-8; test: Micro-array analysis of chemokine binding peptides: IL-8
IL-8, sequence (P10145 28-99 limits assumed): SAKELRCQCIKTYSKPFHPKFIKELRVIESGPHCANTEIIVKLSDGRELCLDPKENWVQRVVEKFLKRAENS
Description: as §1, §2, §3, §4, §5, §6, §7, §8, §9, §10, §11

[19] = molecular target: T18, RANTES (Homo sapiens, UniProt P13501); test: Micro-array analysis of chemokine binding peptides: RANTES
T18 construct: purchased 300-06
T18 sequence (P13501 24-91): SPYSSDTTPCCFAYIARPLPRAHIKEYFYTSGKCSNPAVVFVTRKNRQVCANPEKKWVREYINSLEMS
Description: as §1, §2, §3, §4, §5, §6, §7, §8, §9, §10, §11

[20] = molecular target: T19, Fractalkine (Homo sapiens, UniProt P78423); test: Micro-array analysis of chemokine binding peptides: Fractalkine
T19 construct: purchased 300-31
T19 sequence (P78423 25-100 limits assumed): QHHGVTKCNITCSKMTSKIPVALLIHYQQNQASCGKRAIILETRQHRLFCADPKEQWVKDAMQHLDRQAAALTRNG
Description: as §1, §2, §3, §4, §5, §6, §7, §8, §9, §10, §11

[21] = limit = start of the upper 75% of that peptide's response range

Substance	binding to Mig, stated in words [1]	binding to IP-10, stated in words [2]	binding to I-TAC, stated in words [3]	binding to MCP-1 with relatively high affinity (Relative Fluorescence Units) [5]	binding to MCP-2 with relatively high affinity (Relative Fluorescence Units) [6]	binding to MCP-4 with relatively high affinity (Relative Fluorescence Units) [7]	binding to Eotaxin, stated in words [8]	binding to Eotaxin 3, stated in words [10]	binding to SDF1-α, stated in words [11]	binding to SDF1-β, stated in words [12]	binding to BCA-1, stated in words [13]	binding to TECK, stated in words [14]	binding to Lymphotactin, stated in words [15]	binding to Exodus-2, stated in words [16]	binding to GRO-β, stated in words [17]	binding to IL-8, stated in words [18]	binding to Fractalkine, stated in words [20]	also measured
WVFGAAACK [Ph-p8.6]	bound	bound	bound	> 15,000 RFU	> 15,000 RFU	> 15,000 RFU	bound	bound	bound	bound	bound	bound	bound	bound				binding to I-309, stated in words [4]: bound; binding to Eotaxin 2, stated in words [9]: bound
HYTCSSHFP [Ph-p17]	bound		bound				bound	bound				bound	bound		bound	bound		binding to MCP-1, stated in words [5]: bound; binding to MCP-4, stated in words [7]: bound
DYDYG (listed as Homo sapiens) [Ph-p31]				> 15,000 RFU	> 15,000 RFU	> 15,000 RFU			bound	bound	bound	bound	bound	bound			bound	binding to IL-8 with relatively high affinity (Relative Fluorescence Units) [18, 21]: > 15,000 RFU; binding to Mig with relatively high affinity (Relative Fluorescence Units) [1, 21]: > 15,000 RFU; binding to I-TAC with relatively high affinity (Relative Fluorescence Units) [3, 21]: > 15,000 RFU; binding to I-309 with relatively high affinity (Relative Fluorescence Units) [4, 21]: > 15,000 RFU; binding to RANTES with relatively high affinity (Relative Fluorescence Units) [19, 21]: > 15,000 RFU; binding to Eotaxin with relatively high affinity (Relative Fluorescence Units) [8, 21]: > 15,000 RFU; binding to Eotaxin 2 with relatively high affinity (Relative Fluorescence Units) [9, 21]: > 15,000 RFU; binding to Eotaxin 3 with relatively high affinity (Relative Fluorescence Units) [10, 21]: > 15,000 RFU
TKCOKE (TKCQKE; listed as Homo sapiens) [Ph-p20]	bound	bound		> 15,000 RFU	> 15,000 RFU	> 15,000 RFU	bound	bound			bound	bound	bound	bound	bound	bound	bound	binding to RANTES, stated in words [19]: bound
